From publication PMC3098719 (Molecular cell, 2008)
Residue numbers refer to the chain shown, from its start. Each block holds one molecule with its values, some of them ahead of it.

What was measured:
[1] = biological target: Kae1 (M. jannaschii Kae1, residues 1-328 of MJ1130) (Methanocaldococcus jannaschii, UniProt Q58530); test: ATP-binding assay
[2] = biological target: T1, GST-Kae1 (residues 1-328 of Methanococcus jannaschii MJ1130) (Methanococcus jannaschii, UniProt Q58530 1-328); test: pull-down
T1 sequence (looked up): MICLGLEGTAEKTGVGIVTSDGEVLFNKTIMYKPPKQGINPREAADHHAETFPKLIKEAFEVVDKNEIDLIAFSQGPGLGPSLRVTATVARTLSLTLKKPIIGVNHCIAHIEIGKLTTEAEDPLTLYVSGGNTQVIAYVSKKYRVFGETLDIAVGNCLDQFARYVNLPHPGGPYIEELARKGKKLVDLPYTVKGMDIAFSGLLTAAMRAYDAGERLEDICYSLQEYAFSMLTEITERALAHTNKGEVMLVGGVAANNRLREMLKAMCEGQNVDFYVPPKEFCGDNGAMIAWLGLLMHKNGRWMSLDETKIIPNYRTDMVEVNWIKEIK

[3] = biological target: T2, GST-Kae1 T88R (M. jannaschii) (Methanococcus jannaschii, UniProt Q58530 1-328, T88R); test: pull-down
T2 sequence (looked up): T1 sequence (looked up) with T88R

[4] = biological target: T3, GST-Kae1 T88R/T92R (M. jannaschii) (Methanococcus jannaschii, UniProt Q58530 1-328, T88R | T92R); test: pull-down
T3 sequence (looked up): T1 sequence (looked up) with T88R, T92R

[5] = biological target: T4, GST-Kae1 T88R/R91E (M. jannaschii) (Methanococcus jannaschii, UniProt Q58530 1-328, T88R | R91E); test: pull-down
T4 sequence (looked up): T1 sequence (looked up) with T88R, R91E

- Kd [1]: 27 µM
Molecule: Nc1ncnc2c1ncn2[C@@H]1O[C@H](COP(=O)(O)OP(=O)(O)OP(=O)(O)O)[C@@H](O)[C@H]1O [ATP]

- binding result [2]: binds
- binding result [3]: binds
- binding result [4]: binds
- binding result [5]: binds
B1: Bud32 (residues 328-535 of Methanococcus jannaschii MJ1130), untagged (domain or fragment, UniProt Q58530 328-535, looked up)
chain: KGKKRKIPEHLIGKGAEADIKRDSYLDFDVIIKERVKKGYRDERLDENIRKSRTAREARYLALVKDFGIPAPYIFDVDLDNKRIMMSYINGKLAKDVIEDNLDIAYKIGEIVGKLHKNDVIHNDLTTSNFIFDKDLYIIDFGLGKISNLDEDKAVDLIVFKKAVLSTHHEKFDEIWERFLEGYKSVYDRWEIILELMKDVERRARYVE
